Assay results: patent US7585836B2, “Bi-lateral local renal delivery for treating congestive heart failure and for BNP therapy” (priority 2004, dated 2009)
Several values for one entry are separate records, joined by “and”; a condition that tells them apart may be missing. Equal values may be shown once.

What was measured:
[1] = Pharmacokinetics: serum BNP levels after intra-renal (IR) versus intravenous (IV) BNP administration in the canine model; assay type: in vivo; settings: for difference between serum BNP levels with IR versus IV infusion at comparable time points: higher with IV
Protocol: (§1) IR versus IV administration of human recombinant BNP (Natrecor® agent, Scios, Inc., Johnson & Johnson) was compared in the canine model (two animals). IR infusion was achieved using the FlowMedica Benephit™ Infusion System (FlowMedica, Inc.). IV and IR administration was performed in each animal sequentially, and the administration periods were separated by five days to allow for washout and re-acclimation of the animals. IV administration was conducted on the first day in both animals. Other than the route of BNP administration, all other parameters were identical between the IV and IR administration days in both dogs.
(§2) Canine #1 received a 2 mcg/kg/min bolus of BNP followed immediately by a 0.15 mcg/kg/min BNP infusion for 90 minutes, followed by a 2-hour washout period. Then vasoconstriction was induced via phenylepherine until mean arterial pressure (MAP) was increased by approximately 30% (approximately 1 hour), and then BNP was again administered at 0.15 mcg/kg/min for 90 minutes.
Canine #2 received a 2 mcg/kg/min BNP bolus followed immediately by a 4-hour continuous infusion of BNP at 0.15 mcg/kg/min.
(§3) Key endpoints included serum levels of BNP (pharmacokinetics, both animals) following IR and IV BNP administration, and blood pressure response in response IR and IV BNP administration (Canine #1 only).

[2] = test system: canine model; test: Blood pressure (mean arterial pressure) response to IR and IV BNP during phenylepherine-induced vasoconstriction; assay type: in vivo; settings: Canine #1, constricted vascular state induced by phenylepherine
Protocol: as §1, §2, §3

With nesiritide [BNP] the “difference between serum BNP levels with IR versus IV infusion at comparable time points” value ([1]; Canine #1, 2 mcg/kg/min bolus then 0.15 mcg/kg/min infusion) was 75% and 66%, the “difference between serum BNP levels with IR versus IV infusion at comparable time points” value ([1]; Canine #2, 2 mcg/kg/min bolus then 4-hour infusion at 0.15 mcg/kg/min) was 61% and 69% and the “lower systemic levels with IR than with IV administration of the same dose” value ([1]; both canines, same dose) was 61-75%. For the same substance, the “average reduction of steady-state plasma BNP levels, IR versus systemic (IV) administration” value ([1]; two dogs, given dose IR versus IV) was 63%, the “maximum reduction in mean arterial pressure (MAP)” value ([2]; IR BNP 0.15 mcg/kg/min) was 15% and the “maximum reduction in mean arterial pressure (MAP)” value ([2]; IV BNP 0.15 mcg/kg/min) was 50%.
